± gives the uncertainty stated by the source.
B1: 1-phosphatidylinositol 4,5-bisphosphate phosphodiesterase gamma-2, residues 772 to 827; numbered along this chain, P16885 (parent)
chain: RTVKALYDYKAKRSDELSFCRGALIHNVSKEPGGWWKGDYGTRIQQYFPSNYVEDI
B2: E3 ubiquitin-protein ligase NEDD4-like, residues 539 to 589; numbered along this chain, Q96PU5 (parent)
chain: KTSLNPNDLGPLPPGWEERIHLDGRTFYIDHNSKITQWEDPRLQNPAITGP

Variants of: B1
Test: abundance fitness (aPCA) (normalised: wild type 0, dead -1); higher = more abundant; growth selection in yeast, the domain comes from the species named
Conditions: Homo sapiens
R1Y showed an abundance fitness of 0.164 ± 0.061. G41C showed an abundance fitness of -0.581 ± 0.21. In the case of Y7K, the abundance fitness is reported as 0.158 ± 0.078. For Y7V, the abundance fitness was -0.2 ± 0.065. Y7Q gave an abundance fitness of 0.2 ± 0.093. Work on H26Y yielded an abundance fitness of -0.121 ± 0.12. In the case of H26E, the abundance fitness is reported as -0.002 ± 0.087. In the case of H26S, the abundance fitness is reported as 0.01 ± 0.073. K10T showed an abundance fitness of -0.025 ± 0.097. In the case of A5P, the abundance fitness is reported as -0.95 ± 0.07. A11W showed an abundance fitness of -0.989 ± 0.21. In the case of A11E, the abundance fitness is reported as -0.775 ± 0.25. Variant A23D has an abundance fitness of 0.096 ± 0.09. T2C gave an abundance fitness of -0.344 ± 0.2. With T2H the abundance fitness was -0.603 ± 0.12. With T2A the abundance fitness was -0.287 ± 0.11. G34E gave an abundance fitness of -0.06 ± 0.096. Y40D showed an abundance fitness of -0.711 ± 0.47. I44D showed an abundance fitness of -0.64 ± 0.34. Work on I44K yielded an abundance fitness of -0.008 ± 0.14. Work on I44L yielded an abundance fitness of -0.111 ± 0.076. For T42N, the abundance fitness was 0.139 ± 0.13. Variant T42A has an abundance fitness of -0.065 ± 0.06. P32F gave an abundance fitness of -0.247 ± 0.26. Work on P32E yielded an abundance fitness of 0.126 ± 0.082. P32C gave an abundance fitness of -0.275 ± 0.24. With P32Y the abundance fitness was -0.278 ± 0.31. G22F gave an abundance fitness of -0.802 ± 0.21. Variant D39S has an abundance fitness of -0.825 ± 0.077. D39Y gave an abundance fitness of -0.31 ± 0.46. With W35V the abundance fitness was -0.29 ± 0.057. In the case of N27W, the abundance fitness is reported as -0.956 ± 0.32. Work on N27M yielded an abundance fitness of -0.695 ± 0.28. S18G showed an abundance fitness of -0.679 ± 0.15. Work on R13H yielded an abundance fitness of -0.26 ± 0.16. R13D gave an abundance fitness of -0.281 ± 0.14. Y9H showed an abundance fitness of -0.164 ± 0.26. With K37Q the abundance fitness was -0.407 ± 0.15. K37E showed an abundance fitness of -0.757 ± 0.49. K37Y gave an abundance fitness of -0.301 ± 0.39. K37M showed an abundance fitness of -0.548 ± 0.15. For L24Q, the abundance fitness was -0.267 ± 0.076. In the case of K4S, the abundance fitness is reported as -0.514 ± 0.13. Work on G38E yielded an abundance fitness of -0.595 ± 0.17. Variant G38L has an abundance fitness of -1.11 ± 0.2. C20N gave an abundance fitness of -0.037 ± 0.15. For R43K, the abundance fitness was -0.018 ± 0.1. Variant R43A has an abundance fitness of 0.015 ± 0.065. With V53K the abundance fitness was -0.979 ± 0.15. With V53P the abundance fitness was -1.02 ± 0.32. E16Q showed an abundance fitness of -0.168 ± 0.13. With E16K the abundance fitness was -0.822 ± 0.13. With E16S the abundance fitness was -0.618 ± 0.21. Variant F48T has an abundance fitness of -0.952 ± 0.12. Variant Y52G has an abundance fitness of -0.787 ± 0.11. Variant Y52W has an abundance fitness of -0.327 ± 0.089. Variant Y52K has an abundance fitness of -0.138 ± 0.11. Y52M gave an abundance fitness of 0.045 ± 0.071. D15L showed an abundance fitness of -0.37 ± 0.069. For D15P, the abundance fitness was -0.879 ± 0.15. In the case of E54M, the abundance fitness is reported as -0.316 ± 0.17. E54G showed an abundance fitness of -0.276 ± 0.055. Q46F gave an abundance fitness of -0.274 ± 0.1. Variant S14M has an abundance fitness of 0.024 ± 0.06. S14P showed an abundance fitness of -0.439 ± 0.21. In the case of S14F, the abundance fitness is reported as 0.024 ± 0.16. W36I showed an abundance fitness of -0.611 ± 0.48. Work on W36D yielded an abundance fitness of -0.576 ± 0.28. With W36F the abundance fitness was -0.308 ± 0.24. Work on L6H yielded an abundance fitness of -0.834 ± 0.16. With L6C the abundance fitness was -0.406 ± 0.16. L6I showed an abundance fitness of 0.09 ± 0.16. Work on I25Q yielded an abundance fitness of -0.921 ± 0.32. For I25S, the abundance fitness was -1 ± 0.34. Variant N51P has an abundance fitness of -0.425 ± 0.12. For N51M, the abundance fitness was -0.232 ± 0.092. F19A gave an abundance fitness of -0.758 ± 0.14. In the case of F19L, the abundance fitness is reported as -0.779 ± 0.2. For S50H, the abundance fitness was -0.163 ± 0.19. Variant S50W has an abundance fitness of -0.412 ± 0.088. In the case of S50F, the abundance fitness is reported as -0.181 ± 0.061.

Variants of: B2
Test: as above
Conditions: Homo sapiens
For E39R, the abundance fitness was -0.208 ± 0.049. Variant E39T has an abundance fitness of -0.105 ± 0.084. With E39F the abundance fitness was -0.45 ± 0.092. Work on D8L yielded an abundance fitness of -0.304 ± 0.044. With D8K the abundance fitness was -0.022 ± 0.063. In the case of P14G, the abundance fitness is reported as -0.205 ± 0.067. Work on P14H yielded an abundance fitness of -0.159 ± 0.067. L4P gave an abundance fitness of -0.281 ± 0.061. Variant L4E has an abundance fitness of -0.143 ± 0.076. In the case of L4S, the abundance fitness is reported as -0.07 ± 0.048. In the case of L4F, the abundance fitness is reported as -0.003 ± 0.081. With P6E the abundance fitness was 0.057 ± 0.048. Variant P6N has an abundance fitness of 0.374 ± 0.1. Variant P6G has an abundance fitness of 0.027 ± 0.053. For P6W, the abundance fitness was -0.176 ± 0.074. Variant P6F has an abundance fitness of -0.123 ± 0.11. With P6H the abundance fitness was -0.237 ± 0.12. P6Q showed an abundance fitness of -0.199 ± 0.1. P6M showed an abundance fitness of 0.112 ± 0.088. P6T gave an abundance fitness of 0.144 ± 0.078. Work on W16E yielded an abundance fitness of -0.393 ± 0.081. With W16A the abundance fitness was -0.342 ± 0.045. For W16H, the abundance fitness was -0.386 ± 0.059. In the case of W16D, the abundance fitness is reported as -0.353 ± 0.065. W16S gave an abundance fitness of -0.471 ± 0.065. Variant I29S has an abundance fitness of -0.318 ± 0.056. For I29V, the abundance fitness was 0.013 ± 0.051. For I29C, the abundance fitness was -0.124 ± 0.075. In the case of I29A, the abundance fitness is reported as -0.299 ± 0.065. Variant P13F has an abundance fitness of -0.616 ± 0.063. For P13E, the abundance fitness was -0.506 ± 0.053. P13Q gave an abundance fitness of -0.585 ± 0.097. Work on P13S yielded an abundance fitness of -0.605 ± 0.058. P41D gave an abundance fitness of -0.98 ± 0.17. For P41S, the abundance fitness was -0.827 ± 0.063. Work on P41Y yielded an abundance fitness of -1.15 ± 0.28. P41N gave an abundance fitness of -0.86 ± 0.17. P41Q gave an abundance fitness of -1.14 ± 0.13. Variant P41M has an abundance fitness of -0.367 ± 0.098. P41K showed an abundance fitness of -0.868 ± 0.14. Work on R19L yielded an abundance fitness of -0.354 ± 0.055. For R19A, the abundance fitness was -0.283 ± 0.062. R19E gave an abundance fitness of -0.192 ± 0.069. R25L showed an abundance fitness of -0.598 ± 0.046. R25D gave an abundance fitness of -0.287 ± 0.064. R25T gave an abundance fitness of -0.068 ± 0.043. Variant R25V has an abundance fitness of -0.54 ± 0.045. Work on L12F yielded an abundance fitness of -0.088 ± 0.071. In the case of L12E, the abundance fitness is reported as -0.563 ± 0.089. L12G showed an abundance fitness of -1.2 ± 0.044. With L12R the abundance fitness was -0.864 ± 0.057. For L12I, the abundance fitness was -0.488 ± 0.097. L12A showed an abundance fitness of -0.627 ± 0.044. I20E showed an abundance fitness of 0.022 ± 0.089. In the case of I20Q, the abundance fitness is reported as -0.148 ± 0.11. Variant I20G has an abundance fitness of -0.289 ± 0.052. With I20W the abundance fitness was -0.228 ± 0.08. Variant I20S has an abundance fitness of 0.047 ± 0.064. Work on I20L yielded an abundance fitness of -0.024 ± 0.062. Variant I20Y has an abundance fitness of -0.164 ± 0.051. I20P showed an abundance fitness of -0.226 ± 0.1. With G15I the abundance fitness was -0.429 ± 0.13. For G15D, the abundance fitness was -0.471 ± 0.086. In the case of G15R, the abundance fitness is reported as -0.498 ± 0.064. N32A showed an abundance fitness of -0.339 ± 0.073. Variant N32R has an abundance fitness of -0.044 ± 0.053. For N32E, the abundance fitness was -0.03 ± 0.047. N32W gave an abundance fitness of -0.395 ± 0.043. N32M gave an abundance fitness of -0.164 ± 0.063. Work on N5I yielded an abundance fitness of -0.256 ± 0.12. N5G showed an abundance fitness of -0.175 ± 0.063. With N5A the abundance fitness was -0.167 ± 0.052. Work on N5H yielded an abundance fitness of 0.008 ± 0.096. With N5Y the abundance fitness was -0.259 ± 0.11. Variant E18I has an abundance fitness of -0.796 ± 0.16. E18V gave an abundance fitness of -0.322 ± 0.053. Variant E18R has an abundance fitness of -0.159 ± 0.061. E18W gave an abundance fitness of -0.962 ± 0.1. Variant E18H has an abundance fitness of -0.68 ± 0.17. In the case of Q44N, the abundance fitness is reported as -0.091 ± 0.046. Q44M gave an abundance fitness of -0.049 ± 0.083. With Q44T the abundance fitness was -0.078 ± 0.064. Q44D gave an abundance fitness of 0.028 ± 0.082. With Q44C the abundance fitness was -0.15 ± 0.08. Work on Q44W yielded an abundance fitness of -0.27 ± 0.068. With I48T the abundance fitness was 0.051 ± 0.21.

Reference: the Human Domainome abundance scans (Beltran et al. 2025)
